In publication PMC12099300:

Assays:
atezolizumab = assay: ELISA; antibodies coated on MaxiSorp plates (5 µg/mL, 50 µL, overnight 4°C), blocked with 1% BSA; PD-L1 or VISTA 50-0.0003 µg/mL in PBS, 1 h RT; detected by anti-His-tag antibody and Strep-HRP; EC50 by nonlinear regression
onvatilimab = assay: as above
Chain of onvatilimab (heavy, as listed by the source, chain 1 of 2): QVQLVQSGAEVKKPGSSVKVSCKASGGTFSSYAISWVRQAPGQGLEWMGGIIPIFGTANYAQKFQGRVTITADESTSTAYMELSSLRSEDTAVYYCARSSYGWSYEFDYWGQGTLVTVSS
Chain of onvatilimab (light, as listed by the source, chain 2 of 2): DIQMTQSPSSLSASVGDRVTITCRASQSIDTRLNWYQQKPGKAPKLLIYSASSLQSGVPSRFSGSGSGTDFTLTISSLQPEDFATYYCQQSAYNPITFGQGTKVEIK

Substance | EC50 (atezolizumab) [nM] | EC50 (onvatilimab) [nM]
PD-L1 (programmed cell death ligand 1) (from UniProt Q9NZQ7 19-290) (natural protein) | 0.07 | 
VISTA (V-type immunoglobulin suppressor of T-cell activation) (from UniProt Q9H7M9 33-311) (natural protein) |  | 0.0001
